The values below come from US8071348B2, “Protein tyrosine phosphatase substrate-trapping double mutant and uses thereof” (Albert Einstein College of Medicine of Yeshiva University, priority 2002, dated 2011).

Changes are numbered by the printed parent chain. Numbers in names are those of the source. [ ]: non-standard residue; d: D form. F2Pmp = N[C@@H](Cc1ccc(C(F)(F)P(=O)(O)O)cc1)C(=O)O

A word on the Kd: it is the constant that tells how readily two partners part at equilibrium.

Series [1] concerns EGFR^988-998 peptide, DADEpYLIPQQG. Briefly: Kinetic constants for PTP1B-catalyzed hydrolysis of pTyr-containing EGFR988-998 peptide. As to conditions: EGFR988-998 peptide as substrate. It is filed as biochemical. The source says: The catalytic domain of PTP1B (residues 1 to 321) was used for in vitro study. PTP1B mutants, C215S, D181A, and Q262A, were described previously (9, 25, 26). PTP1B double mutants, D181A/C215S and C215S/Q262A, were generated by PCR reactions, according to the standard procedure of the Quick-Change™ site-directed mutagenesis kit (Stratagene), using pT7-7/PTP1B/C215S as a template. PTP1B double mutants, D181A/C215E and D181A/Q262A, were generated by similar PCR procedures, using pT7-7/PTP1B/D181A as a template. The recombinant wild-type and mutant PTP1Bs were expressed in E. coli, and purified to homogeneity as described (25, 27). Protein concentration was determined from absorbance measurement at 280 nm, using an absorbance coefficient of 1.24 for 1 mg/ml PTP1B.
All assays were performed at 25° C. in buffer (pH 7.0, ionic strength=0.15 M) containing 50 mM 3,3-dimethylglutarate and 1 mM EDTA. A continuous spectrophotometric assay, previously described (28), was employed to determine kcat and Km for the pTyr-containing peptides. The dephosphorylation reaction was monitored by either an increase in absorbance at 282 nm, or an increase in fluorescence at 305 nm. Fluorometric and absorbance determinations were performed on a Perkin-Elmer LS50B fluorometer and a Perkin-Elmer Lambda 14 spectrophotometer, respectively. The instruments were equipped with a water-jacketed cell holder, permitting maintenance of the reaction mixture at the desired temperature (25° C.).

Series [2] deals with Ac-Asp-Ala-Asp-Glu-F2Pmp-Leu-NH2. As to conditions: cited from earlier work.
The target in series [3] is T1, Ac-Asp-Ala-Asp-Glu-F2Pmp-Leu-NH2 (Homo sapiens, UniProt P18031, C215S).
T1 construct: The catalytic domain of PTP1B (residues 1 to 321) was used for in vitro study; made in house; host or cells: E. coli (pT7-7 plasmids)
T1 sequence (P18031 1-321 C215S): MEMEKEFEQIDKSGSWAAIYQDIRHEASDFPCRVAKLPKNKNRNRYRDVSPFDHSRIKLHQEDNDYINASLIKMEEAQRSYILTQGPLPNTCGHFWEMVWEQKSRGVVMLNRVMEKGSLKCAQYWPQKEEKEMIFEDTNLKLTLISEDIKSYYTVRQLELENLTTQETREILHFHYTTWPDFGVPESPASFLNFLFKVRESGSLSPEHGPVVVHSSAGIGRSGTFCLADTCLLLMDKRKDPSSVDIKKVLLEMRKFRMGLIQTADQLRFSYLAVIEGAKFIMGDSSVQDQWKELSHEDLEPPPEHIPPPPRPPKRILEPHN
Briefly: Isothermal titration calorimetry, binding of PTP1B and mutants to F2Pmp peptide. The conditions noted are these: lower temperature (15° C.). As to the method:
(§1) FIG. 3 portrays calorimetric isothermal titration for the reaction of peptide Ac-Asp-Ala-Asp-Glu-F2Pmp-Leu-NH2 with PTP1B/D181A/Q262A. The upper graph depicts raw data for thirty 8-μl injections of the peptide (0.5 mM stock) into the isothermal cell containing 32 μM PTP1B/D181A/Q262A, at 4-min intervals and 25° C. Both the protein and the peptide were in 50 mM 3,3-dimethylglutarate buffer (I=0.15 M, pH 7.0) containing 1 mM DTT. The lower graph depicts an integration curve showing experimental points that were obtained by integration of the above peaks as plotted against the molar ratio of the peptide to PTP1B/D181A/Q262A within the reaction cell. The solid line corresponds to the best fit to the data according to the nonlinear, least-squares regression algorithm, ORIGIN (29).
(§2) All isothermal titration calorimetry experiments were performed using an MCS Isothermal Titration Calorimetry System from Microcal Inc. (Northampton, Mass.). […] The ionic strength of the buffer was adjusted to 0.15 M by addition of NaCl. Protein concentration in the calorimeter cell was 27-85 μM, while the ligand concentration in the syringe was 0.37-1 mM.
(§3) The PTP1B samples used in the isothermal titration calorimetry experiments were dialyzed completely against buffer. High-concentration stock solutions were prepared for ligands with distilled water, and adjusted to pH 7.0. Stock was diluted at least 26-fold with 50 mM 3,3-dimethylglutarate buffer before titration. Protein dilution during titration was determined by titration of buffer into the protein solution. […] The heat of ligand dilution was corrected by subtracting the average heat of injection after saturation.
(§4) The binding data were analyzed using ORIGIN software (29). Binding constant, K, and enthalpy change, ΔH, were used to calculate free energy change, ΔG, and entropy change, ΔS, according to equation [1]: −RTLnK=ΔG=ΔH−TΔS [1] where R is the gas constant and T is the absolute temperature.

The target in series [4] is T2, Ac-Asp-Ala-Asp-Glu-F2Pmp-Leu-NH2 (Homo sapiens, UniProt P18031, C215S/Q262A).
T2 construct: The catalytic domain of PTP1B (residues 1 to 321) was used for in vitro study; made in house; host or cells: E. coli (pT7-7 plasmids)
T2 sequence (P18031 1-321 C215S/Q262A): T1 sequence (P18031 1-321 C215S) with Q262A
The series is described as above. The conditions noted are these: 25° C.; one peak absorbing heat, the other releasing heat. How it is done:
as §1, §2, §3, §4

For series [5], the target named is T3, PTP1B/D181A/C215E, catalytic domain (residues 1 to 321) (human, UniProt P18031 1-321).
T3 construct: range 1-321; Used in vitro (ITC)
T3 sequence (looked up): T1 sequence (P18031 1-321 C215S) with D181A, S215E
Briefly: ITC, 25 C, pH 7.0. As to the method: (§5) All isothermal titration calorimetry experiments were performed using an MCS Isothermal Titration Calorimetry System from Microcal Inc. (Northampton, Mass.). Experiments at pH 7.0 were conducted at 25° C., in 50 mM 3,3-dimethylglutarate buffer containing 1 mM DTT. The ionic strength of the buffer was adjusted to 0.15 M by addition of NaCl. Protein concentration in the calorimeter cell was 27-85 µM, while the ligand concentration in the syringe was 0.37-1 mM.
(§6) The PTP1B samples used in the isothermal titration calorimetry experiments were dialyzed completely against buffer. High-concentration stock solutions were prepared for ligands with distilled water, and adjusted to pH 7.0. […] Protein dilution during titration was determined by titration of buffer into the protein solution. […] The heat of ligand dilution was corrected by subtracting the average heat of injection after saturation.
(§7) A typical titration curve and binding isotherm for the binding of D181A/Q262A to Ac-Asp-Ala-Asp-Glu-F_2Pmp-Leu-NH_2 is shown in FIG. 3. From curve-fitting of the binding isotherms, the stoichiometry for the binding of the peptide to D181A/Q262A was determined to be 1:1.
On the technique in general: Isothermal titration calorimetry measures the heat released or taken up as one component is titrated into another.

The target in series [6] is T4, PTP1B/D181A/Q262A, catalytic domain (residues 1 to 321) (human, UniProt P18031 1-321).
T4 construct: range 1-321; Used in vitro (ITC, kinetics); also called PTP1B substrate-trapping double mutant
T4 sequence (looked up): T1 sequence (P18031 1-321 C215S) with D181A, S215C, Q262A
Briefly: ITC, 25 C, pH 7.0. As to the method: as §5, §6, §7

B1: C215S: existing PTP1B substrate-trapping mutant, active site Cys215 replaced by Ser (protein, UniProt P18031 1-435, looked up, variant C215S)
Tyrosine-protein phosphatase …: MEMEKEFEQIDKSGSWAAIYQDIRHEASDFPCRVAKLPKNKNRNRYRDVSPFDHSRIKLHQEDNDYINASLIKMEEAQRSYILTQGPLPNTCGHFWEMVWEQKSRGVVMLNRVMEKGSLKCAQYWPQKEEKEMIFEDTNLKLTLISEDIKSYYTVRQLELENLTTQETREILHFHYTTWPDFGVPESPASFLNFLFKVRESGSLSPEHGPVVVHSSAGIGRSGTFCLADTCLLLMDKRKDPSSVDIKKVLLEMRKFRMGLIQTADQLRFSYLAVIEGAKFIMGDSSVQDQWKELSHEDLEPPPEHIPPPPRPPKRILEPHNGKCREFFPNHQWVKEETQEDKDCPIKEEKGSPLNAAPYGIESMSQDTEVRSRVVGGSLRGAQAASPAKGEPSLPEKDEDHALSYWKPFLVNMCVATVLTAGAYLCYRFLFNSNT
Turning to B1, the phosphatase activity result in series [1] is reported as “no measurable activities”. In addition, the “affinity compared with wild-type enzyme” value in series [2] (F2Pmp peptide, previously determined (24)) was “same affinity as the wild-type enzyme”. In addition, the dissociation constant Kd in series [2] (ITC, 25° C. and pH 7.0, data from (24)) is 190 ± 30 nM. Further, in series [3], the “shape of ITC titration curve” value is “displayed two peaks”.

B2: C215S/Q262A: PTP1B double mutant, Cys215 to Ser and Gln262 to Ala (protein, UniProt P18031 1-435, looked up, variant C215S Q262A)
Tyrosine-protein phosphatase …: B1 Tyrosine-protein phosphatase … with Q262A
In the case of B2, the phosphatase activity entry in series [1] is given as “no measurable activities”. The “shape of ITC titration curve” value in series [4] is “displayed two peaks”.

B3: Ac-Asp-Ala-Asp-Glu-F2Pmp-Leu-NH2 (peptide)
peptide: Ac-DADE[F2Pmp]L-NH2
notes: Synthetic hexapeptide printed in three-letter code; also called F2Pmp-containing peptide; non-hydrolyzable substrate analog
B3: the Kd in series [5] is 1300 nM; in series [6], 6.8 nM.
